T1: FcγRIIa R extracellular domain with C-terminal His tag (human, UniProt P12318 34-217)
T1 construct: extracellular domain; also called FcgRIIa R; 2aR; not shown: His tag at the C terminus
T1 sequence (looked up): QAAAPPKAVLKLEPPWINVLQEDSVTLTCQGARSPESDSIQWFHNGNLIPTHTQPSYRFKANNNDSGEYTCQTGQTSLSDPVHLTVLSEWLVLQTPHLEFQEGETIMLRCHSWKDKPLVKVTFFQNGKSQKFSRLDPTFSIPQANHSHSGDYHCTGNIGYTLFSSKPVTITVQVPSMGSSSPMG

B1: GpH7-A5/GpH7-B3 variant K326_15Y/GpL16-k0 (antibody, human IgG1, kappa)
heavy 1: not shown
heavy 2: not shown
light: DIVMTQSPLSLPVTPGEPASISCQASESLVHSNRNTYLHWYLQKPGQSPQLLIYKVSNRFSGVPDRFSGSGSGTDFTLKISRVEAEDVGVYYCSQNTHVPPTFGQGTKVEIERTVAAPSVFIFPPSDEQLKSGTASVVCLLNNFYPREAKVQWKVDNALQSGNSQESVTEQDSKDSTYSLSSTLTLSKADYEKHKVYACEVTHQGLSSPVTKSFNRGEC
notes: heterodimerized: alteration in one H chain only; also called He Ab K326_15Y
B2: GpH7-A5/GpH7-B3 variant K326_07I/GpL16-k0 (antibody, human IgG1, kappa)
heavy 1: not shown
heavy 2: not shown
light: B1 light
notes: heterodimerized: alteration in one H chain only; also called He Ab K326_07I
B3: GpH7-A5/GpH7-B3 variant P331_16H/GpL16-k0 (antibody, human IgG1, kappa)
heavy 1: not shown
heavy 2: not shown
light: B1 light
notes: heterodimerized: alteration in one H chain only; also called He Ab P331_16H
B4: GpH7-A5/GpH7-B3 variant K334_10E/GpL16-k0 (antibody, human IgG1, kappa)
heavy 1: not shown
heavy 2: not shown
light: B1 light
notes: heterodimerized: alteration in one H chain only; also called He Ab K334_10E
B5: GpH7-A5/GpH7-B3 variant K326_08L/GpL16-k0 (antibody, human IgG1, kappa)
heavy 1: not shown
heavy 2: not shown
light: B1 light
notes: heterodimerized: alteration in one H chain only; also called He Ab K326_08L
B6: GpH7-A5/GpH7-B3 variant I336_08L/GpL16-k0 (antibody, human IgG1, kappa)
heavy 1: not shown
heavy 2: not shown
light: B1 light
notes: heterodimerized: alteration in one H chain only; also called He Ab I336_08L
B7: GpH7-A5/GpH7-B3 variant P238_04F/GpL16-k0 (antibody, human IgG1, kappa)
heavy 1: not shown
heavy 2: not shown
light: B1 light
notes: heterodimerized: alteration in one H chain only; also called He Ab P238_04F
B8: GpH7-A5/GpH7-B3 variant S239_18N/GpL16-k0 (antibody, human IgG1, kappa)
heavy 1: not shown
heavy 2: not shown
light: B1 light
notes: heterodimerized: alteration in one H chain only; also called He Ab S239_18N
B9: GpH7-A5/GpH7-B3 variant S239_08L/GpL16-k0 (antibody, human IgG1, kappa)
heavy 1: not shown
heavy 2: not shown
light: B1 light
notes: heterodimerized: alteration in one H chain only; also called He Ab S239_08L
B10: GpH7-A5/GpH7-B3 variant P238_03V/GpL16-k0 (antibody, human IgG1, kappa)
heavy 1: not shown
heavy 2: not shown
light: B1 light
notes: heterodimerized: alteration in one H chain only; also called He Ab P238_03V
B11: GpH7-A5/GpH7-B3 variant I332_06M/GpL16-k0 (antibody, human IgG1, kappa)
heavy 1: not shown
heavy 2: not shown
light: B1 light
notes: heterodimerized: alteration in one H chain only; also called He Ab I332_06M
B12: GpH7-A5/GpH7-B3 variant A330_12R/GpL16-k0 (antibody, human IgG1, kappa)
heavy 1: not shown
heavy 2: not shown
light: B1 light
notes: heterodimerized: alteration in one H chain only; also called He Ab A330_12R
B13: GpH7-A5/GpH7-B3 variant G237_04F/GpL16-k0 (antibody, human IgG1, kappa)
heavy 1: not shown
heavy 2: not shown
light: B1 light
notes: heterodimerized: alteration in one H chain only; also called He Ab G237_04F
B14: GpH7-A5/GpH7-B3 variant S267_03V/GpL16-k0 (antibody, human IgG1, kappa)
heavy 1: not shown
heavy 2: not shown
light: B1 light
notes: heterodimerized: alteration in one H chain only; also called He Ab S267_03V
B15: GpH7-A5/GpH7-B3 variant K334_08L/GpL16-k0 (antibody, human IgG1, kappa)
heavy 1: not shown
heavy 2: not shown
light: B1 light
notes: heterodimerized: alteration in one H chain only; also called He Ab K334_08L
B16: GpH7-A5/GpH7-B3 variant P271_08L/GpL16-k0 (antibody, human IgG1, kappa)
heavy 1: not shown
heavy 2: not shown
light: B1 light
notes: heterodimerized: alteration in one H chain only; also called He Ab P271_08L
B17: GpH7-A5/GpH7-B3 variant K326_04F/GpL16-k0 (antibody, human IgG1, kappa)
heavy 1: not shown
heavy 2: not shown
light: B1 light
notes: heterodimerized: alteration in one H chain only; also called He Ab K326_04F
B18: GpH7-A5/GpH7-B3 variant S239_10E/GpL16-k0 (antibody, human IgG1, kappa)
heavy 1: not shown
heavy 2: not shown
light: B1 light
notes: heterodimerized: alteration in one H chain only; also called He Ab S239_10E
B19: GpH7-A5/GpH7-B3 variant A327_09D/GpL16-k0 (antibody, human IgG1, kappa)
heavy 1: not shown
heavy 2: not shown
light: B1 light
notes: heterodimerized: alteration in one H chain only; also called He Ab A327_09D
B20: GpH7-A5/GpH7-B3 variant G237_20W/GpL16-k0 (antibody, human IgG1, kappa)
heavy 1: not shown
heavy 2: not shown
light: B1 light
notes: heterodimerized: alteration in one H chain only; also called He Ab G237_20W
B21: GpH7-A5/GpH7-B3 variant P331_15Y/GpL16-k0 (antibody, human IgG1, kappa)
heavy 1: not shown
heavy 2: not shown
light: B1 light
notes: heterodimerized: alteration in one H chain only; also called He Ab P331_15Y
B22: GpH7-A5/GpH7-B3 variant K334_04F/GpL16-k0 (antibody, human IgG1, kappa)
heavy 1: not shown
heavy 2: not shown
light: B1 light
notes: heterodimerized: alteration in one H chain only; also called He Ab K334_04F
B23: GpH7-A5/GpH7-B3 variant K326_03V/GpL16-k0 (antibody, human IgG1, kappa)
heavy 1: not shown
heavy 2: not shown
light: B1 light
notes: heterodimerized: alteration in one H chain only; also called He Ab K326_03V
B24: GpH7-A5/GpH7-B3 variant L328_14T/GpL16-k0 (antibody, human IgG1, kappa)
heavy 1: not shown
heavy 2: not shown
light: B1 light
notes: heterodimerized: alteration in one H chain only; also called He Ab L328_14T
B25: GpH7-A5/GpH7-B3 variant H268_01G/GpL16-k0 (antibody, human IgG1, kappa)
heavy 1: not shown
heavy 2: not shown
light: B1 light
notes: heterodimerized: alteration in one H chain only; also called He Ab H268_01G
B26: GpH7-A5/GpH7-B3 variant A327_10E/GpL16-k0 (antibody, human IgG1, kappa)
heavy 1: not shown
heavy 2: not shown
light: B1 light
notes: heterodimerized: alteration in one H chain only; also called He Ab A327_10E
B27: GpH7-A5/GpH7-B3 variant L328_13S/GpL16-k0 (antibody, human IgG1, kappa)
heavy 1: not shown
heavy 2: not shown
light: B1 light
notes: heterodimerized: alteration in one H chain only; also called He Ab L328_13S

target: T1, FcγRIIa R extracellular domain with …; experiment: SPR (Biacore), relative FcγRIIa R binding, GpH7-A5/GpH7-B3/GpL16-k0 = 100

He/Con_2aR	Binder
136 % of control	B1
147 % of control	B2
114 % of control	B3
106 % of control	B4
137 % of control	B5
110 % of control	B6
174 % of control	B7
111 % of control	B8
122 % of control	B9
120 % of control	B10
109 % of control	B11
104 % of control	B12
126 % of control	B13
116 % of control	B14
106 % of control	B15
104 % of control	B16
135 % of control	B17
135 % of control	B18
124 % of control	B19
138 % of control	B20
112 % of control	B21
110 % of control	B22
141 % of control	B23
119 % of control	B24
124 % of control	B25
110 % of control	B26
117 % of control	B27

— patent publication US20150344570A1 (published 2015)
